This assay has as its target T1, Biotin-HSA (human, UniProt P02768, biotinylated (sites and number not given)).
T1 construct: biotinylated, without the compound; not further described; also called biotinylated-HSA; biotinylated human albumin
Kind of assay: binding of biotinylated HSA without compound to transfected HEK293 cells, detected with avidin-alkaline phosphatase.

T1 sequence (P02768 25-609 limits assumed): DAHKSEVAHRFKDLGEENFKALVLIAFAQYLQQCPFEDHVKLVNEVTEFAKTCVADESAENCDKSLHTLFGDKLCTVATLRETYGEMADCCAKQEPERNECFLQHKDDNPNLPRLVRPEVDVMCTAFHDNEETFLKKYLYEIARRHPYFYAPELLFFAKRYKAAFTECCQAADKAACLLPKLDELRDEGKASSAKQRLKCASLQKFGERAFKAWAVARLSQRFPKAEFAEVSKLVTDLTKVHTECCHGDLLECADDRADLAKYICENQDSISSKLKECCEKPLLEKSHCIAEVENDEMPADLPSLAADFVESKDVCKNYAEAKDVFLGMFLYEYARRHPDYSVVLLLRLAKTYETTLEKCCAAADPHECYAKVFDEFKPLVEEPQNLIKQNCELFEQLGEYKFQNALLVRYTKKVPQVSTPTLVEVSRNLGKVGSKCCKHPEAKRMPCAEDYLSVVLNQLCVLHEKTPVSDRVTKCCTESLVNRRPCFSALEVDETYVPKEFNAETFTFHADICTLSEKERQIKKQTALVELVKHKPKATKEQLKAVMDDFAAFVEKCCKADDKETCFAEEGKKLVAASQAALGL

B1: R-PLXDC1 (full length human PLXDC1 with an epitope tag at the N-terminus, on transfected cells) (receptor, not shown: small tags and cut ends)
chain: LSPQPGAGHDEGPGSGWAAKGTVRGWNRRARESPGHVSEPDRTQLSQDLGGGTLAMDTLPDNRTRVVEDNHSYYVSRLYGPSEPHSRELWVDVAEANRSQVKIHTILSNTHRQASRVVLSFDFPFYGHPLRQITIATGGFIFMGDVIHRMLTATQYVAPLMANFNPGYSDNSTVVYFDNGTVFVVQWDHVYLQGWEDKGSFTFQAALHHDGRIVFAYKEIPMSVPEISSSQHPVKTGLSDAFMILNPSPDVPESRRRSIFEYHRIELDPSKVTSMSAVEFTPLPTCLQHRSCDACMSSDLTFNCSWCHVLQRCSSGFDRYRQEWMDYGCAQEAEGRMCEDFQDEDHDSASPDTSFSPYDGDLTTTSSSLFIDSLTTEDDTKLNPYAGGDGLQNNLSPKTKGTPVHLGTIVGIVLAVLLVAAIILAGIYINGHPTSNAALFFIERRPHHWPAMKFRSHPDHSTYAEVEPSGHEKEGFMEAEQC
notes: also called TEM7
Consider B1, for which the binding result is recorded as “no binding”.

The values are drawn from patent US20210147525A1 (University of California, published 2021).
